US6900299 (UNIVERSITY OF SOUTH FLORIDA, dated 2005)

Tests used:
[1] = biological target: human ICAM-1 on cells (HEp-2, NHBE, A549, U937) (human) (UniProt P05362); test: cell-based or functional assay
[2] = biological target: T1, human ICAM-1 fused to the VP16 activation domain (pVP16 vector) (herpes simplex virus; human, UniProt P05362 28-532); test: mammalian two-hybrid assay in NIH3T3 cells, CAT reporter (CAT activity similar to the basal level)
T1 construct: Order of the parts follows the usual pVP16 layout; also called ICAM-1 (two-hybrid construct)
T1 sequence (P05362 28-532 limits assumed): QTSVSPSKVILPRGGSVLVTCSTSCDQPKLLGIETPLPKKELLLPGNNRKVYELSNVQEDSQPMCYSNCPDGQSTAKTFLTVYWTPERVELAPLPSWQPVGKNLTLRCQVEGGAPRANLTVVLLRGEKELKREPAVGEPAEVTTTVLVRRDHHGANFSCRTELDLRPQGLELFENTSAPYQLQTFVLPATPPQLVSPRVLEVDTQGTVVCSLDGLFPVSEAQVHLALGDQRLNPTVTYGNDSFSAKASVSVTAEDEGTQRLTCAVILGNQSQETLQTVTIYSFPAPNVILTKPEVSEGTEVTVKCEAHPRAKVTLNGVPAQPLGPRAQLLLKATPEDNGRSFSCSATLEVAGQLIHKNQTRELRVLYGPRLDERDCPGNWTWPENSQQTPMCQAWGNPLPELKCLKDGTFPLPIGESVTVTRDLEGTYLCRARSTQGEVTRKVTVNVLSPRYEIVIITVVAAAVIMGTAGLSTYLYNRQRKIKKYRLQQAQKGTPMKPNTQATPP

Chain of human ICAM-1 on cells (HEp-2, NHBE, A549, U937) (human) (P05362 28-532): as the sequence (P05362 28-532 limits assumed) above

mouse anti-human ICAM-1 mAb (BBA 4) (R & D Systems) (antibody)
inhibition of RSV N gene mRNA in HEp-2 cells (RT-PCR) at 400 µg of mAb/ml [1]: 70% | inhibition of RSV infection of HEp-2 cells (immunofluorescence, percent infected cells) at 400 µg/ml [1]: 96% | reduction in RSV infection of A549 cells at 400 µg of mAb/ml [1]: 67% | reduction in RSV infection of NHBE cells at 400 µg of mAb/ml [1]: 54%

B1: RSV-G fused to the GAL4 DNA-binding domain (pM vector) (other)
chain: MKLLSSIEQACDICRLKKLKCSKEKPKCAKCLKNNWECRYSPKTKRSPLTRAHLTEVESRLERLEQLFLLIFPREDLDMILKMDSLQDIKALLTGLFVQDNVNKDAVTDRLASVETDMPLTLRQHRISATSSSEESSNKGQRQLTVSMSKNKDQRTAKTLERTWDTLNHLLFISSCLYKLNLKSVAQITLSILAMIISTSLIIAAIIFIASANHKVTPTTAIIQDATSQIKNTTPTYLTQNPQLGISPSNPSEITSQITTILASTTPGVKSTLQSTTVKTKNTTTTQTQPSKPTTKQRQNKPPSKPNNDFHFEVFNFVPCSICSNNPTCWAICKRIPNKKPGKKTTTKPTKKPTLKTTKKDPKPQTTKSKEVPTTKPTEEPTINTTKTNIITTLLTSNTTGNPELTSQMETFHSTSSEGNPSPSQVSTTSEYPSQPSSPPNTPRQ
notes: also called cDNA construct expressing G; RSV-G gene product
binding result [2]: no binding
